Patent publication US20180339042A1 (published 2018)

Molecular target: T1, human GITR, membrane bound (human, UniProt Q9Y5U5 26-241)
T1 sequence: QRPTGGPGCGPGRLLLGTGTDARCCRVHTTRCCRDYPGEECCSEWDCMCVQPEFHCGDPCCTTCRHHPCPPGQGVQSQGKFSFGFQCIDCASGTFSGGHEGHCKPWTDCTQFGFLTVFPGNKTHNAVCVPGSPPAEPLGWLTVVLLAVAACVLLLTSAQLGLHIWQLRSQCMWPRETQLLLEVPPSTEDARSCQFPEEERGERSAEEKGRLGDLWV
Assay: cell-based or functional assay

NFKB signaling (phospho-p65), CD4+ T cells, Emax (%): 69% | NFKB signaling (phospho-p65), CD8+ T cells, Emax (%): 85%
B1: 28F3 (antibody, human IgG2, kappa)
heavy: QVQLVESGGGVVQPGRSLRLSCAASGFTFSSYGMHWVRQAPGKGLEWVAVIWYEGSNKYYADSVKGRFTISRDNSKNTLYLQMNSLRAEDTAVYYCARGGSMVRGDYYYGMDVWGQGTTVTVSSASTKGPSVFPLAPCSRSTSESTAALGCLVKDYFPEPVTVSWNSGALTSGVHTFPAVLQSSGLYSLSSVVTVPSSNFGTQTYTCNVDHKPSNTKVDKTVERKCCVECPPCPAPPVAGPSVFLFPPKPKDTLMISRTPEVTCVVVDVSHEDPEVQFNWYVDGVEVHNAKTKPREEQFNSTFRVVSVLTVVHQDWLNGKEYKCKVSNKGLPAPIEKTISKTKGQPREPQVYTLPPSREEMTKNQVSLTCLVKGFYPSDIAVEWESNGQPENNYKTTPPMLDSDGSFFLYSKLTVDKSRWQQGNVFSCSVMHEALHNHYTQKSLSLSPGK
light: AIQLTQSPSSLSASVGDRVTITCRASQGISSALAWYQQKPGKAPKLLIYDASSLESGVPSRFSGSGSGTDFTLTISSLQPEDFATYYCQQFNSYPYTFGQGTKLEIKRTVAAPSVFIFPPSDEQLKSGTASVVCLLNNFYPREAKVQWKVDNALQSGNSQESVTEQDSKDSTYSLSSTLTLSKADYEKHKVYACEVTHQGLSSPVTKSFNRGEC
